Source: publication PMC12443421 (2025)

Columns and labels:
[1] = target: wild-type 185 bp nucleosome (with symmetric flanking DNA) (human, UniProt P04908 1-130; P62807 1-126; Q71DI3 1-136; P62805 1-103)
[2] = target: wild-type unmodified 147 bp nucleosome (nucleosome core particle) (human, UniProt P04908 1-130; P62807 1-126; Q71DI3 1-136; P62805 1-103)

Kd [1]: 3 µM | Kd [2]: 4 µM
B1: KDM5A^CAT (lysine demethylase 5A, residues 1-801) (domain or fragment)
chain: MAGVGPGGYAAEFVPPPECPVFEPSWEEFTDPLSFIGRIRPLAEKTGICKIRPPKDWQPPFACEVKSFRFTPRVQRLNELEAMTRVRLDFLDQLAKFWELQGSTLKIPVVERKILDLYALSKIVASKGGFEMVTKEKKWSKVGSRLGYLPGKGTGSLLKSHYERILYPYELFQSGVSLMGVQMPNLDLKEKVEPEVLSTDTQTSPEPGTRMNILPKRTRRVKTQSESGDVSRNTELKKLQIFGAGPKVVGLAMGTKDKEDEVTRRRKVTNRSDAFNMQMRQRKGTLSVNFVDLYVCMFCGRGNNEDKLLLCDGCDDSYHTFCLIPPLPDVPKGDWRCPKCVAEECSKPREAFGFEQAVREYTLQSFGEMADNFKSDYFNMPVHMVPTELVEKEFWRLVSSIEEDVIVEYGADISSKDFGSGFPVKDGRRKILPEEEEYALSGWNLNNMPVLEQSVLAHINVDISGMKVPWLYVGMCFSSFCWHIEDHWSYSINYLHWGEPKTWYGVPSHAAEQLEEVMRELAPELFESQPDLLHQLVTIMNPNVLMEHGVPVYRTNQCAGEFVVTFPRAYHSGFNQGYNFAEAVNFCTADWLPIGRQCVNHYRRLRRHCVFSHEELIFKMAADPECLDVGLAAMVCKELTLMTEEETRLRESVVQMGVLMSEEEVFELVPDDERQCSACRTTCFLSALTCSCNPERLVCLYHPTDLCPCPMQKKCLRYRYPLEDLPSLLYGVKVRAQSYDTWVSRVTEALSANFNHKKDLIELRVMLEDAEDRKYPENDLFRKLRDAVKEAETCASVAQLL
